This note sets out measurements from PMC4039082 (Science (New York, N.Y.), 2013).

To fix the notation:
B2: Ssl2 helicase subunit of TFIIH (natural protein, S. cerevisiae, UniProt Q00578 1-843, looked up)
chain: MTDVEGYQPKSKGKIFPDMGESFFSSDEDSPATDAEIDENYDDNRETSEGRGERDTGAMVTGLKKPRKKTKSSRHTAADSSMNQMDAKDKALLQDTNSDIPADFVPDSVSGMFRSHDFSYLRLRPDHASRPLWISPSDGRIILESFSPLAEQAQDFLVTIAEPISRPSHIHEYKITAYSLYAAVSVGLETDDIISVLDRLSKVPVAESIINFIKGATISYGKVKLVIKHNRYFVETTQADILQMLLNDSVIGPLRIDSDHQVQPPEDVLQQQLQQTAGKPATNVNPNDVEAVFSAVIGGDNEREEEDDDIDAVHSFEIANESVEVVKKRCQEIDYPVLEEYDFRNDHRNPDLDIDLKPSTQIRPYQEKSLSKMFGNGRARSGIIVLPCGAGKTLVGITAACTIKKSVIVLCTSSVSVMQWRQQFLQWCTLQPENCAVFTSDNKEMFQTESGLVVSTYSMVANTRNRSHDSQKVMDFLTGREWGFIILDEVHVVPAAMFRRVVSTIAAHAKLGLTATLVREDDKIGDLNFLIGPKLYEANWMELSQKGHIANVQCAEVWCPMTAEFYQEYLRETARKRMLLYIMNPTKFQACQFLIQYHERRGDKIIVFSDNVYALQEYALKMGKPFIYGSTPQQERMNILQNFQYNDQINTIFLSKVGDTSIDLPEATCLIQISSHYGSRRQEAQRLGRILRAKRRNDEGFNAFFYSLVSKDTQEMYYSTKRQAFLVDQGYAFKVITHLHGMENIPNLAYASPRERRELLQEVLLKNEEAAGIEVGDDADNSVGRGSNGHKRFKSKAVRGEGSLSGLAGGEDMAYMEYSTNKNKELKEHHPLIRKMYYKNLKK
B6: Tfg2 subunit of TFIIF (natural protein, S. cerevisiae, UniProt P41896 1-400, looked up)
chain: MSSGSAGAPALSNNSTNSVAKEKSGNISGDEYLSQEEEVFDGNDIENNETKVYEESLDLDLERSNRQVWLVRLPMFLAEKWRDRNNLHGQELGKIRINKDGSKITLLLNENDNDSIPHEYDLELTKKVVENEYVFTEQNLKKYQQRKKELEADPEKQRQAYLKKQEREEELKKKQQQQKRRNNRKKFNHRVMTDRDGRDRYIPYVKTIPKKTAIVGTVCHECQVMPSMNDPNYHKIVEQRRNIVKLNNKERITTLDETVGVTMSHTGMSMRSDNSNFLKVGREKAKSNIKSIRMPKKEILDYLFKLFDEYDYWSLKGLKERTRQPEAHLKECLDKVATLVKKGPYAFKYTLRPEYKKLKEEERKATLGELADEQTGSAGDNAQGDAEADLEDEIEMEDVV

Holding throughout (assay): cross-linking
The target of the experiment “Tfg2 subunit of TFIIF” is B6.
Experiment [1] deals with Rpb1 subunit of RNA polymerase II (S. cerevisiae, UniProt P04050 1-1733).
Chain of Rpb1 subunit of RNA polymerase II (P04050 whole entry): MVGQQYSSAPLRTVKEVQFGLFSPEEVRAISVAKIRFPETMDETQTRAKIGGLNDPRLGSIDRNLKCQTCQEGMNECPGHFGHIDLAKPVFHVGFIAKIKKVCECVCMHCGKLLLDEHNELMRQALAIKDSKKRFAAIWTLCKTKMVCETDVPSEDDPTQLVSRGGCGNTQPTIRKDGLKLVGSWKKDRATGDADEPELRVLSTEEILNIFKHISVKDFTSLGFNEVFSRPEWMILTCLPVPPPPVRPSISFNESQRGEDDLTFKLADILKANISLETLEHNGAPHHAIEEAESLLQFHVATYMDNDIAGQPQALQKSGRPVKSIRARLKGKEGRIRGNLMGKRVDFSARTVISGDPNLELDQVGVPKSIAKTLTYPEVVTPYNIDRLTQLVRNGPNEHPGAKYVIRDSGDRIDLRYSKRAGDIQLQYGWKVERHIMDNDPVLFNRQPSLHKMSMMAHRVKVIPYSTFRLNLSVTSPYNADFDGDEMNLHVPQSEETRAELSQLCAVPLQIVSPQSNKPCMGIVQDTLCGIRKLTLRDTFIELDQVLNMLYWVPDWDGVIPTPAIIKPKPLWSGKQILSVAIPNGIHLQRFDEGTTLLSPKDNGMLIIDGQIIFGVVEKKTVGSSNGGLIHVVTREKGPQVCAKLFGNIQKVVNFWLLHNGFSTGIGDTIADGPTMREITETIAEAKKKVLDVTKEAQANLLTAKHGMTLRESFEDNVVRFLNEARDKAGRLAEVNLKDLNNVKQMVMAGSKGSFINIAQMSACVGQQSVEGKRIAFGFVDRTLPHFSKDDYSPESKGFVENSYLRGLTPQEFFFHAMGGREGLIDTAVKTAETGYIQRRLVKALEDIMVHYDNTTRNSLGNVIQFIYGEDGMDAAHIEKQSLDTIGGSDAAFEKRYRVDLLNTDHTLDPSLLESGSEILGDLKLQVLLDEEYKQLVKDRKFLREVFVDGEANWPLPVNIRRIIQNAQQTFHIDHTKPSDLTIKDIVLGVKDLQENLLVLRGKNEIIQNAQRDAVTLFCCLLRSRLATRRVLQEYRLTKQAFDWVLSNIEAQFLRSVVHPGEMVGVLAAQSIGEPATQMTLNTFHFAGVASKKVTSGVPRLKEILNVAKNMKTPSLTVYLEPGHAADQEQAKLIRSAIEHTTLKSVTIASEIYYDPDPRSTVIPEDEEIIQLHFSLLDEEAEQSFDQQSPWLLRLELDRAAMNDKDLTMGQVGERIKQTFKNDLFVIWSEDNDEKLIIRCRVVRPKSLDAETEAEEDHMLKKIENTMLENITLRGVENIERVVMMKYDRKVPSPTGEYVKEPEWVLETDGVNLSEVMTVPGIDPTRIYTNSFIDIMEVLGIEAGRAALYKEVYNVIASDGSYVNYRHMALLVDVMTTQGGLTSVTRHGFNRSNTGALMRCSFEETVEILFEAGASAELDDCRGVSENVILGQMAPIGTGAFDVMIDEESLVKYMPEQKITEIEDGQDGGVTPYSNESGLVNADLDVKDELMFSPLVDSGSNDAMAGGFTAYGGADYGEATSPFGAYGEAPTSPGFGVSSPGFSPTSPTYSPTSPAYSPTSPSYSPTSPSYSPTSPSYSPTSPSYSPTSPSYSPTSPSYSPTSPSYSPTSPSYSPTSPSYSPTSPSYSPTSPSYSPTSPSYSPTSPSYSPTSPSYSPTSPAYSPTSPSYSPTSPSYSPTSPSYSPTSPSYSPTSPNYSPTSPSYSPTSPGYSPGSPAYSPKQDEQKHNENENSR
The next experiment deals with Rpb2 subunit of pol II (S. cerevisiae, UniProt P08518 1-1224).
Chain of Rpb2 subunit of pol II (P08518 whole entry): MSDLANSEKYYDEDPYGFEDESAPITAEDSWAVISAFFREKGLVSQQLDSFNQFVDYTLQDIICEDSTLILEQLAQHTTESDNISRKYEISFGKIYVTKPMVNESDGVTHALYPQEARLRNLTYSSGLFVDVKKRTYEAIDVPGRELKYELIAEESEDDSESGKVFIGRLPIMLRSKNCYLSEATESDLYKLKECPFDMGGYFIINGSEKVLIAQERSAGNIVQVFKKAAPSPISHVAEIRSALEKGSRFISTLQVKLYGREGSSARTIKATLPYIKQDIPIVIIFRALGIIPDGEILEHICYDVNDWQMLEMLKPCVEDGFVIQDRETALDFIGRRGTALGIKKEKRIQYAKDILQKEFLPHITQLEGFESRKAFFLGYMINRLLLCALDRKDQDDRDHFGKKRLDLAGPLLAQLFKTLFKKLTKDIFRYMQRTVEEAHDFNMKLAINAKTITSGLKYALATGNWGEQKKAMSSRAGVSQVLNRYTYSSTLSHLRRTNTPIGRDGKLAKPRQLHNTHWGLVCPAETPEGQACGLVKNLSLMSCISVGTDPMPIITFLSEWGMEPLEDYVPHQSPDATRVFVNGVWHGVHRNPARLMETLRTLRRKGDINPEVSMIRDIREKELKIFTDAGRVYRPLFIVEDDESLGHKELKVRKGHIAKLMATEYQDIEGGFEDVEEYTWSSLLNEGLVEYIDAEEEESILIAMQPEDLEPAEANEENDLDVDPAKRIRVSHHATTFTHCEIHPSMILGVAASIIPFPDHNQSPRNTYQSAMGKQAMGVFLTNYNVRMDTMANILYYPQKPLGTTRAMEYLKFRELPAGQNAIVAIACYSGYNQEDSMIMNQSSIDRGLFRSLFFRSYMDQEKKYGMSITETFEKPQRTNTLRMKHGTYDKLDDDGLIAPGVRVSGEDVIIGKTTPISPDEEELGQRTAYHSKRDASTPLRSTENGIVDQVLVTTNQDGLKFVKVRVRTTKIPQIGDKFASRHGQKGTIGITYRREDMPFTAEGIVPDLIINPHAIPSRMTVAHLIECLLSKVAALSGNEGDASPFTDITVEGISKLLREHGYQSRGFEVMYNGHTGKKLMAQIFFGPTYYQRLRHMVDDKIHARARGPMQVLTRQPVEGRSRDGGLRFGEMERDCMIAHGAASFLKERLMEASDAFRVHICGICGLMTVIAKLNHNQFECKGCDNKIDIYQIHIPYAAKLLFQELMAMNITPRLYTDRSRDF
For a further experiment, the target named is T1, Tfa1 subunit of TFIIE (S. cerevisiae, UniProt P36100 1-482).
T1 sequence (looked up): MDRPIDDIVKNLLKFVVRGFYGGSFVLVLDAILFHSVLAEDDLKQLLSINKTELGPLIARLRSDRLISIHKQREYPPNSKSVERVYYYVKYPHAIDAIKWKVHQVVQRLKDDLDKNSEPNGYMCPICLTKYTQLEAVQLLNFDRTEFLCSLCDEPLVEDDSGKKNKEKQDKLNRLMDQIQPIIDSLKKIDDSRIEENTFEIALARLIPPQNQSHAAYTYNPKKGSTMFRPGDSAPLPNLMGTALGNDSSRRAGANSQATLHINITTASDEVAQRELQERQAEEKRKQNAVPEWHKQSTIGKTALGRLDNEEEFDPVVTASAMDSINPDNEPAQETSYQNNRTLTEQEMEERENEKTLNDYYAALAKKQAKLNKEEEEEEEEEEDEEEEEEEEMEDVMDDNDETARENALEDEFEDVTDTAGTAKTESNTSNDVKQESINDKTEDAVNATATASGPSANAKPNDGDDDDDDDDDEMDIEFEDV

For experiment [2], the target named is B2.

B1: TFIIB (natural protein, S. cerevisiae, UniProt P29055 1-345, looked up)
chain: MMTRESIDKRAGRRGPNLNIVLTCPECKVYPPKIVERFSEGDVVCALCGLVLSDKLVDTRSEWRTFSNDDHNGDDPSRVGEASNPLLDGNNLSTRIGKGETTDMRFTKELNKAQGKNVMDKKDNEVQAAFAKITMLCDAAELPKIVKDCAKEAYKLCHDEKTLKGKSMESIMAASILIGCRRAEVARTFKEIQSLIHVKTKEFGKTLNIMKNILRGKSEDGFLKIDTDNMSGAQNLTYIPRFCSHLGLPMQVTTSAEYTAKKCKEIKEIAGKSPITIAVVSIYLNILLFQIPITAAKVGQTLQVTEGTIKSGYKILYEHRDKLVDPQLIANGVVSLDNLPGVEKK
For B1, in the experiment with Tfg2 subunit of TFIIF, the binding result was “binds”.
B2: the binding result in experiment [1] is “binds”.

B3: Tfg1 subunit of TFIIF (natural protein, S. cerevisiae, UniProt P41895 1-735, looked up)
chain: MSRRNPPGSRNGGGPTNASPFIKRDRMRRNFLRMRMGQNGSNSSSPGVPNGDNSRGSLVKKDDPEYAEEREKMLLQIGVEADAGRSNVKVKDEDPNEYNEFPLRAIPKEDLENMRTHLLKFQSKKKINPVTDFHLPVRLHRKDTRNLQFQLTRAEIVQRQKEISEYKKKAEQERSTPNSGGMNKSGTVSLNNTVKDGSQTPTVDSVTKDNTANGVNSSIPTVTGSSVPPASPTTVSAVESNGLSNGSTSAANGLDGNASTANLANGRPLVTKLEDAGPAEDPTKVGMVKYDGKEVTNEPEFEEGTMDPLADVAPDGGGRAKRGNLRRKTRQLKVLDENAKKLRFEEFYPWVMEDFDGYNTWVGSYEAGNSDSYVLLSVEDDGSFTMIPADKVYKFTARNKYATLTIDEAEKRMDKKSGEVPRWLMKHLDNIGTTTTRYDRTRRKLKAVADQQAMDEDDRDDNSEVELDYDEEFADDEEAPIIDGNEQENKESEQRIKKEMLQANAMGLRDEEAPSENEEDELFGEKKIDEDGERIKKALQKTELAALYSSDENEINPYLSESDIENKENESPVKKEEDSDTLSKSKRSSPKKQQKKATNAHVHKEPTLRVKSIKNCVIILKGDKKILKSFPEGEWNPQTTKAVDSSNNASNTVPSPIKQEEGLNSTVAEREETPAPTITEKDIIEAIGDGKVNIKEFGKFIRRKYPGAENKKLMFAIVKKLCRKVGNDHMELKKE
Take B3: the binding result with Rpb2 subunit of pol II is given as “binds”.

B4: Toa2 subunit of TFIIA (natural protein, S. cerevisiae, UniProt P32774 1-122, looked up)
chain: MAVPGYYELYRRSTIGNSLVDALDTLISDGRIEASLAMRVLETFDKVVAETLKDNTQSKLTVKGNLDTYGFCDDVWTFIVKNCQVTVEDSHRDASQNGSGDSQSVISVDKLRIVACNSKKSE
On to B4, for which, in the experiment with Tfg2 subunit of TFIIF, the binding result is “binds”.

B5: Tfa2 subunit of TFIIE (natural protein, S. cerevisiae, UniProt P36145 1-328, looked up)
chain: MSKNRDPLLANLNAFKSKVKSAPVIAPAKVGQKKTNDTVITIDGNTRKRTASERAQENTLNSAKNPVLVDIKKEAGSNSSNAISLDDDDDDEDFGSSPSKKVRPGSIAAAALQANQTDISKSHDSSKLLWATEYIQKKGKPVLVNELLDYLSMKKDDKVIELLKKLDRIEFDPKKGTFKYLSTYDVHSPSELLKLLRSQVTFKGISCKDLKDGWPQCDETINQLEEDSKILVLRTKKDKTPRYVWYNSGGNLKCIDEEFVKMWENVQLPQFAELPRKLQDLGLKPASVDPATIKRQTKRVEVKKKRQRKGKITNTHMTGILKDYSHRV
For B5, the binding result with Tfg2 subunit of TFIIF and in the experiment with Tfa1 subunit of TFIIE was “binds” in each case.
Regarding B6, the binding result (with Rpb2 subunit of pol II; in experiment [2]) was “binds” throughout.

B7: Ssl1 subunit of core TFIIH (natural protein, S. cerevisiae, UniProt Q04673 1-461, looked up)
chain: MAPVVISESEEDEDRVAITRRTKRQVHFDGEGDDRVDQQQQQHSSSHRDRDKHVQRKKKKRLSNRNLQGSNGGYAWEDEIKRSWDLVKVDDEGDMASLVASIVEARKKRTAKKNITPYQRGIIRSLILTLDCSEAMLEKDLRPNRHAMIIQYAIDFVHEFFDQNPISQMGIIIMRNGLAQLVSQVSGNPQDHIDALKSIRKQEPKGNPSLQNALEMARGLLLPVPAHCTREVLIVFGSLSTTDPGDIHQTIDSLVSEKIRVKVLGLSAQVAICKELCKATNYGDESFYKILLDETHLKELFNEAVTPLPVNKINKGFTLVKMGFPTRIFEDTPTFCSCHSKLVYGGYFCPNCHSKVCSLPTVCPCCDLMLILSTHLARSYHHLMPLKTFAEVPTTEKFRSEDCFSCQSRFPILKNHKNGKLLTSSRYRCEDCKQEFCVDCDVFIHEILHNCPGCESKPVIT
Turning to B7, the binding result with Tfa1 subunit of TFIIE is “binds”.
